What was measured:
[1] = target: T1, purified hexon protein from ChAdOx1 (chimpanzee adenovirus Y25 (ChAdOx1)); assay: SPR
T1 chain: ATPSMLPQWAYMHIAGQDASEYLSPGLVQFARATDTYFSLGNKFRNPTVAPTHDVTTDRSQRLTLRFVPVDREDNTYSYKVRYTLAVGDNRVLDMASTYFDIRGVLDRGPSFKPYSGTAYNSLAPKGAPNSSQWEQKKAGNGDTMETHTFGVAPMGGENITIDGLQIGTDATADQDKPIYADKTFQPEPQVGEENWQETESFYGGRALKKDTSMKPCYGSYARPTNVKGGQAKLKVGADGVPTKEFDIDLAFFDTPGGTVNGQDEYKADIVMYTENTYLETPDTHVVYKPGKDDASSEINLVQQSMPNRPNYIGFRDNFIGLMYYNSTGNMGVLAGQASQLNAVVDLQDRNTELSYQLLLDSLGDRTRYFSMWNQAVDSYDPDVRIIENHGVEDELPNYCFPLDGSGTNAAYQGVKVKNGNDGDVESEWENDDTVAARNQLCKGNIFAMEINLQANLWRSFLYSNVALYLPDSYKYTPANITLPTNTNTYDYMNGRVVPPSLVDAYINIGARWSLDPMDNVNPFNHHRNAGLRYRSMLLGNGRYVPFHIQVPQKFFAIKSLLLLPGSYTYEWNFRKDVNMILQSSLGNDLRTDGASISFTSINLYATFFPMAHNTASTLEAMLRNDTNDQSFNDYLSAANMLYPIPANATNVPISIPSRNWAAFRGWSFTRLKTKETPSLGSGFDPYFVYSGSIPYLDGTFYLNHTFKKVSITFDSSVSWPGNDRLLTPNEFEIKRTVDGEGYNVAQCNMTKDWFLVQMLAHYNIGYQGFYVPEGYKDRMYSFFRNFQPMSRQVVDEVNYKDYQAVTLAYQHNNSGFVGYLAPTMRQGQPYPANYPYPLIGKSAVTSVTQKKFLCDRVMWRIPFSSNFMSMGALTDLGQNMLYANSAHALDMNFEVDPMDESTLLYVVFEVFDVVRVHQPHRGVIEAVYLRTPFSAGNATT

[2] = target: T2, HAdV-C5 hexon protein (HAdV-C5, UniProt P04133 1-952); assay: SPR
T2 chain: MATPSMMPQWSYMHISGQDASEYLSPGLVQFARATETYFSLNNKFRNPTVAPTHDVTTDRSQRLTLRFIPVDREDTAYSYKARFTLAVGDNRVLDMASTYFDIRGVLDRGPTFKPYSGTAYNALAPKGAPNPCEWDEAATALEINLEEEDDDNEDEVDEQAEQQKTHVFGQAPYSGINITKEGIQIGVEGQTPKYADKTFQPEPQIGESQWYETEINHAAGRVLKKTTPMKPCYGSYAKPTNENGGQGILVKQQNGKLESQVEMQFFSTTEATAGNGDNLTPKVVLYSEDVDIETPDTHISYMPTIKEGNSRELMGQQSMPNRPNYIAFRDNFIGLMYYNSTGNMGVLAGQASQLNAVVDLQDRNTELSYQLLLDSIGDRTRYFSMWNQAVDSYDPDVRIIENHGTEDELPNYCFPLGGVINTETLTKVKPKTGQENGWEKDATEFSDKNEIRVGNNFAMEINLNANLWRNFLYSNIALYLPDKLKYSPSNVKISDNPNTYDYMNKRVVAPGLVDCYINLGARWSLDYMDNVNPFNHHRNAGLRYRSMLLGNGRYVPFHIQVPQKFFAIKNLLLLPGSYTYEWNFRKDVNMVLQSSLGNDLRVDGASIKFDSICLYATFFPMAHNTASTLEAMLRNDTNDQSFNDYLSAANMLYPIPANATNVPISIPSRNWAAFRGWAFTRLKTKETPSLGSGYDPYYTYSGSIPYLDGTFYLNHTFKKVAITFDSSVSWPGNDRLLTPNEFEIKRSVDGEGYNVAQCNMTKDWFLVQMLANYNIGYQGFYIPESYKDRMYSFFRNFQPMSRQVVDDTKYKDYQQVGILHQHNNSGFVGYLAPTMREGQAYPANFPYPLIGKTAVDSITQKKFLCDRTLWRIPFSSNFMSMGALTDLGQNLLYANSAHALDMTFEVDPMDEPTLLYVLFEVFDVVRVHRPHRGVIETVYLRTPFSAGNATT

B1: platelet factor 4 (PF4) (natural protein)
chain: EAEEDGDLQCLCVKTTSQVRPRHITSLEVIKAGPHCPTAQLIATLKNGRKICLDLQAPLYKKIIKKLLES
koff [1]: 0.0106 s⁻¹
koff [2]: 0.0213 s⁻¹
